From paper PMC5625350 (Nature structural & molecular biology, 2017) come the findings set out here.

Substitutions are numbered along the chain they refer to. In names and notes the source's numbering stands.

The series “SAXS” concerns the molecule itself. In words: SAXS.
The series “crystal structure” concerns the molecule itself. Put plainly: crystal structure.
The series “cross-linking” concerns the molecule itself. In words: cross-linking.
The series “SEC” deals with the molecule itself. In words: SEC. In general terms: Size exclusion chromatography separates by hydrodynamic size, large species first.
In series [1] the target is Rad50 dCC (in MRN);Mre11;Nbs1 (Homo sapiens;Homo sapiens;Homo sapiens, UniProt Q92878;P49959;O60934 1-1312;1-708;1-754, del614-668;del702-750||). In words: EMSA.
For series [2], the target named is Rad50 WT (in MRN);Mre11;Nbs1 (Homo sapiens;Homo sapiens;Homo sapiens, UniProt Q92878;P49959;O60934 1-1312;1-708;1-754, ||). In words: EMSA.

B1: HsRad50HCC construct that contains the two interfaces (residues 635 to 730) (domain or fragment, human, UniProt Q92878 635-730, looked up)
chain: SQDFESDLDRLKEEIEKSSKQRAMLAGATAVYSQFITQLTDENQSCCPVCQRVFQTEAELQEVISDLQSKLRLAPDKLKSTESELKKKEKRRDEML
As to B1, in “SAXS”, the binding result is on record as “binds”.

B2: human Rad50 hook and coiled-coil domain, HsRad50HCC182 (residues 585 to 766) (domain or fragment, UniProt Q92878 585-766, looked up)
chain: KEINQTRDRLAKLNKELASSEQNKNHINNELKRKEEQLSSYEDKLFDVCGSQDFESDLDRLKEEIEKSSKQRAMLAGATAVYSQFITQLTDENQSCCPVCQRVFQTEAELQEVISDLQSKLRLAPDKLKSTESELKKKEKRRDEMLGLVPMRQSIIDLKEKEIPELRNKLQNVNRDIQRLKN
In the case of B2, in “crystal structure”, the binding result is given as “binds”.

B3: HsRad50HCC182 K599C (domain or fragment, human, UniProt Q92878 585-766, looked up)
chain: B2 chain with K15C
B3: in the series “cross-linking”, the binding result is listed as “binds”.

B4: Rad50-48 (S679R, P682R) Rad50HCC182 K599C (domain or fragment, human, UniProt Q92878 585-766, looked up)
chain: B2 chain with K15C, S95R, P98R
On to B4, for which the binding result in the series “cross-linking” is listed as “binds”.

B5: HsRad50HCC182 S738C (domain or fragment, human, UniProt Q92878 585-766, looked up)
chain: B2 chain with S154C
On to B5, for which the binding result in “cross-linking” is “binds”.

B6: Rad50ΔCC (Rad50HCC182 with residues 614-668 and 702-750 deleted) (domain or fragment, human, UniProt Q92878 585-766, looked up)
chain: KEINQTRDRLAKLNKELASSEQNKNHINNFITQLTDENQSCCPVCQRVFQTEAELQEVISDLRNKLQNVNRDIQRLKN
B6: the binding result in the series “SEC” is given as “binds”.

B7: Rad50ΔCC K599C (domain or fragment, human, UniProt Q92878 585-766, looked up)
chain: B6 chain with K15C
B7: in “cross-linking”, the binding result is listed as “binds”.

B8: 83-mer dsDNA (dsDNA)
DNA 1: TTGATAAGAGGTCATTTTTGCGGATGGCTTAGAGCTTAATTGCTGAATCTGGTGCTGTAGCTCAACATGTTTTAAATATGCAA
DNA 2: TTGCATATTTAAAACATGTTGAGCTACAGCACCAGATTCAGCAATTAAGCTCTAAGCCATCCGCAAAAATGACCTCTTATCAA
B8: the binding result in series [1] and in series [2] was “binds” each time.
